Assay results taken from patent US9617572B2, “Methods of producing 7-carbon chemicals via aromatic compounds” (INVISTA North America S.á r.l., priority 2012, dated 2017).
One block for each molecule: values may come before it.

What was measured:
Format in all cases: biochemical
[1] = Carboxylate reductase activity assay (N7-acetyl-7-aminoheptanoate to N7-acetyl-7-aminoheptanal); settings: purified enzyme enhanced by sfp gene product, 2 mM N7-acetyl-7-aminoheptanoate, 1 mM ATP, 1 mM NADPH, pH 7.5, room temperature, 20 min, against empty vector control
Protocol: The activity of each of the N-terminal His-tagged carboxylate reductases of SEQ ID NOs: 3, 6, and 7 (see Example 4, and FIGS. 7B, 7E, and 7F) for converting N7-acetyl-7-aminoheptanoate to N7-acetyl-7-aminoheptanal was assayed in triplicate in a buffer composed of a final concentration of 50 mM HEPES buffer (pH=7.5), 2 mM N7-acetyl-7-aminoheptanoate, 10 mM MgCl2, 1 mM ATP, and 1 mM NADPH. The assays were initiated by adding purified carboxylate reductase and phosphopantetheine transferase or the empty vector control to the assay buffer containing the N7-acetyl-7-aminoheptanoate then incubated at room temperature for 20 min. The consumption of NADPH was monitored by absorbance at 340 nm.

[2] = ω-Transaminase activity assay, reverse direction (7-aminoheptanoate to pimelate semialdehyde); settings: cell free extract, 10 mM 7-aminoheptanoate, 10 mM pyruvate, pH 7.5, 25° C., 4 h, against empty vector control
Protocol: (§1) A sequence encoding an N-terminal His-tag was added to the genes from Chromobacterium violaceum, Pseudomonas syringae, Rhodobacter sphaeroides, and Vibrio Fluvialis encoding the ω-transaminases of SEQ ID NOs: 8, 10, 11 and 13, respectively (see FIGS. 7F and 7G) such that N-terminal HIS tagged ω-transaminases could be produced. Each of the resulting modified genes was cloned into a pET21a expression vector under control of the T7 promoter and each expression vector was transformed into a BL21[DE3] E. coli host. The resulting recombinant E. coli strains were cultivated at 37° C. in a 250 mL shake flask culture containing 50 mL LB media and antibiotic selection pressure, with shaking at 230 rpm. Each culture was induced overnight at 16° C. using 1 mM IPTG.
(§2) The pellet from each induced shake flask culture was harvested via centrifugation. Each pellet was resuspended and lysed via sonication. The cell debris was separated from the supernatant via centrifugation and the cell free extract was used immediately in enzyme activity assays.
Enzyme activity assays in the reverse direction (i.e., 7-aminoheptanoate to pimelate semialdehyde) were performed in a buffer composed of a final concentration of 50 mM HEPES buffer (pH =7.5), 10 mM 7-aminoheptanoate, 10 mM pyruvate and 100 μM pyridoxyl 5′ phosphate. Each enzyme activity assay reaction was initiated by adding cell free extract of the ω-transaminase gene product or the empty vector control to the assay buffer containing the 7-aminoheptanoate and incubated at 25° C. for 4 h, with shaking at 250 rpm. The formation of L-alanine from pyruvate was quantified via RP-HPLC.

[3] = ω-Transaminase activity assay, forward direction (pimelate semialdehyde to 7-aminoheptanoate)
Protocol: as §1, §2
Enzyme activity in the forward direction (i.e., pimelate semialdehyde to 7-aminoheptanoate) was confirmed for the transaminases of SEQ ID NO 10, SEQ ID NO 11 and SEQ ID NO 13. Enzyme activity assays were performed in a buffer composed of a final concentration of 50 mM HEPES buffer (pH=7.5), 10 mM pimelate semialdehyde, 10 mM L-alanine and 100 μM pyridoxyl 5′ phosphate. Each enzyme activity assay reaction was initiated by adding a cell free extract of the ω-transaminase gene product or the empty vector control to the assay buffer containing the pimelate semialdehyde and incubated at 25° C. for 4 h, with shaking at 250 rpm. The formation of pyruvate was quantified via RP-HPLC.

[4] = ω-Transaminase activity assay (7-aminoheptanol to 7-oxoheptanol)
Protocol: A nucleotide sequence encoding an N-terminal His-tag was added to the Chromobacterium violaceum, Pseudomonas syringae and Rhodobacter sphaeroides genes encoding the ω-transaminases of SEQ ID NOs: 8, 10 and 11, respectively (see FIGS. 7F and 7G) such that N-terminal HIS tagged ω-transaminases could be produced. The modified genes were cloned into a pET21a expression vector under the T7 promoter. Each expression vector was transformed into a BL21[DE3] E. coli host. Each resulting recombinant E. coli strain were cultivated at 37° C. in a 250 mL shake flask culture containing 50 mL LB media and antibiotic selection pressure, with shaking at 230 rpm. Each culture was induced overnight at 16° C. using 1 mM IPTG.
as §2
Enzyme activity assays in the reverse direction (i.e., 7-aminoheptanol to 7-oxoheptanol) were performed in a buffer composed of a final concentration of 50 mM HEPES buffer (pH=7.5), 10 mM 7-aminoheptanol, 10 mM pyruvate, and 100 μM pyridoxyl 5′ phosphate. Each enzyme activity assay reaction was initiated by adding cell free extract of the ω-transaminase gene product or the empty vector control to the assay buffer containing the 7-aminoheptanol and then incubated at 25° C. for 4 h, with shaking at 250 rpm. The formation of L-alanine was quantified via RP-HPLC.

B1: SEQ ID NO 6: Mycobacterium massiliense carboxylate reductase, Genbank Accession No. EIV11143.1 (protein)
chain: MTNETNPQQEQLSRRIESLRESDPQFRAAQPDPAVAEQVLRPGLHLSEAIAALMTGYAERPALGERARELVIDQDGRTTLRLLPRFDTTTYGELWSRTTSVAAAWHHDATHPVKAGDLVATLGFTSIDYTVLDLAIMILGGVAVPLQTSAPASQWTTILAEAEPNTLAVSIELIGAAMESVRATPSIKQVVVFDYTPEVDDQREAFEAASTQLAGTGIALETLDAVIARGAALPAAPLYAPSAGDDPLALLIYTSGSTGAPKGAMHSENIVRRWWIREDVMAGTENLPMIGLNFMPMSHIMGRGTLTSTLSTGGTGYFAASSDMSTLFEDMELIRPTALALVPRVCDMVFQRFQTEVDRRLASGDTASAEAVAAEVKADIRDNLFGGRVSAVMVGSAPLSEELGEFIESCFELNLTDGYGSTEAGMVFRDGIVQRPPVIDYKLVDVPELGYFSTDKPHPRGELLLKTDGMFLGYYKRPEVTASVFDADGFYMTGDIVAELAHDNIEIIDRRNNVLKLSQGEFVAVATLEAEYANSPVVHQIYVYGSSERSYLLAVVVPTPEAVAAAKGDAAALKTTIADSLQDIAKEIQLQSYEVPRDFIIEPQPFTQGNGLLTGIAKLARPNLKAHYGPRLEQMYAEIAEQQAAELRALHGVDPDKPALETVLKAAQALLGVSSAELAADAHFTDLGGDSLSALSFSDLLRDIFAVEVPVGVIVSAANDLGGVAKFVDEQRHSGGTRPTAETVHGAGHTEIRAADLTLDKFIDEATLHAAPSLPKAAGIPHTVLLTGSNGYLGHYLALEWLERLDKTDGKLIVIVRGKNAEAAYGRLEEAFDTGDTELLAHFRSLADKHLEVLAGDIGDPNLGLDADTWQRLADTVDVIVHPAALVNHVLPYNQLFGPNVVGTAEIIKLAITTKIKPVTYLSTVAVAAYVDPTTFDEESDIRLISAVRPIDDGYANGYGNAKWAGEVLLREAHDLCGLPVAVFRSDMILAHSRYTGQLNVPDQFTRLILSLIATGIAPGSFYQAQTTGERPLAHYDGLPGDFTAEAITTLGTQVPEGSEGFVTYDCVNPHADGISLDNFVDWLIEAGYPIARIDNYTEWFTRFDTAIRGLSEKQKQHSLLPLLHAFEQPSAAENHGVVPAKRFQHAVQAAGIGPVGQDGTTDIPHLSRRLIVKYAKDLEQLGLL
modifications: Mycobacterium massiliense
acceptance of N7-acetyl-7-aminoheptanoate as substrate (consumption of NADPH, absorbance at 340 nm) [1]: accepted N7-acetyl-7-aminoheptanoate as substrate

acceptance of 7-aminoheptanoate as substrate (formation of L-alanine from pyruvate, RP-HPLC) [2]: accepted 7-aminoheptanote as substrate
acceptance of 7-aminoheptanol as substrate (formation of L-alanine, RP-HPLC) ([4]; cell free extract, 10 mM 7-aminoheptanol, 10 mM pyruvate, pH 7.5, 25° C., 4 h, against empty vector control): accepted 7-aminoheptanol as substrate
B2: SEQ ID NO 10: Pseudomonas syringae ω-transaminase, Genbank Accession No. AAY39893.1 (protein, listed as Pseudomonas syringae)
chain: MSANNPQTLEWQALSSEHHLAPFSDYKQLKEKGPRIITRAEGVYLWDSEGNKILDGMSGLWCVAIGYGREELADAASKQMRELPYYNLFFQTAHPPVLELAKAISDIAPEGMNHVFFTGSGSEGNDTMLRMVRHYWALKGQPNKKTIISRVNGYHGSTVAGASLGGMTYMHEQGDLPIPGVVHIPQPYWFGEGGDMTPDEFGIWAAEQLEKKILELGVENVGAFIAEPIQGAGGVIVPPDSYWPKIKEILSRYDILFAADEVICGFGRTSEWFGSDFYGLRPDMMTIAKGLTSGYVPMGGLIVRDEIVAVLNEGGDFNHGFTYSGHPVAAAVALENIRILREEKIVERVRSETAPYLQKRLRELSDHPLVGEVRGVGLLGAIELVKDKTTRERYTDKGAGMICRTFCFDNGLIMRAVGDTMIIAPPLVISFAQIDELVEKARTCLDLTLAVLQG
acceptance of pimelate semialdehyde as substrate (formation of pyruvate from L-alanine, RP-HPLC) ([3]; cell free extract, 10 mM pimelate semialdehyde, 10 mM L-alanine, pH 7.5, 25° C., 4 h, against empty vector control): accepted pimelate semialdehyde as substrate
reversibility of ω-transaminase activity: accepts pimelate semialdehyde and synthesizes 7-aminoheptanoate ([3]; conclusion from reverse and forward direction assays): accepted pimelate semialdehyde as substrate and synthesized 7-aminoheptanoate
acceptance of 7-oxoheptanol as substrate forming 7-aminoheptanol ([4]; concluded from reversibility of the ω-transaminase activity (Example 2)): accept 7-oxoheptanol as substrate and form 7-aminoheptanol

B3: SEQ ID NO 3: Mycobacterium smegmatis carboxylate reductase, Genbank Accession No. ABK71854.1 (protein, listed as Mycobacterium smegmatis)
chain: MTSDVHDATDGVTETALDDEQSTRRIAELYATDPEFAAAAPLPAVVDAAHKPGLRLAEILQTLFTGYGDRPALGYRARELATDEGGRTVTRLLPRFDTLTYAQVWSRVQAVAAALRHNFAQPIYPGDAVATIGFASPDYLTLDLVCAYLGLVSVPLQHNAPVSRLAPILAEVEPRILTVSAEYLDLAVESVRDVNSVSQLVVFDHHPEVDDHRDALARAREQLAGKGIAVTTLDAIADEGAGLPAEPIYTADHDQRLAMILYTSGSTGAPKGAMYTEAMVARLWTMSFITGDPTPVINVNFMPLNHLGGRIPISTAVQNGGTSYFVPESDMSTLFEDLALVRPTELGLVPRVADMLYQHHLATVDRLVTQGADELTAEKQAGAELREQVLGGRVITGFVSTAPLAAEMRAFLDITLGAHIVDGYGLTETGAVTRDGVIVRPPVIDYKLIDVPELGYFSTDKPYPRGELLVRSQTLTPGYYKRPEVTASVFDRDGYYHTGDVMAETAPDHLVYVDRRNNVLKLAQGEFVAVANLEAVFSGAALVRQIFVYGNSERSFLLAVVVPTPEALEQYDPAALKAALADSLQRTARDAELQSYEVPADFIVETEPFSAANGLLSGVGKLLRPNLKDRYGQRLEQMYADIAATQANQLRELRRAAATQPVIDTLTQAAATILGTGSEVASDAHFTDLGGDSLSALTLSNLLSDFFGFEVPVGTIVNPATNLAQLAQHIEAQRTAGDRRPSFTTVHGADATEIRASELTLDKFIDAETLRAAPGLPKVTTEPRTVLLSGANGWLGRFLTLQWLERLAPVGGTLITIVRGRDDAAARARLTQAYDTDPELSRRFAELADRHLRVVAGDIGDPNLGLTPEIWHRLAAEVDLVVHPAALVNHVLPYRQLFGPNVVGTAEVIKLALTERIKPVTYLSTVSVAMGIPDFEEDGDIRTVSPVRPLDGGYANGYGNSKWAGEVLLREAHDLCGLPVATFRSDMILAHPRYRGQVNVPDMFTRLLLSLLITGVAPRSFYIGDGERPRAHYPGLTVDFVAEAVTTLGAQQREGYVSYDVMNPHDDGISLDVFVDWLIRAGHPIDRVDDYDDWVRRFETALTALPEKRRAQTVLPLLHAFRAPQAPLRGAPEPTEVFHAAVRTAKVGPGDIPHLDEALIDKYIRDLREFGLI
acceptance of N7-acetyl-7-aminoheptanoate as substrate (consumption of NADPH, absorbance at 340 nm) [1]: accepted N7-acetyl-7-aminoheptanoate as substrate
